Measurements taken from article PMC6004266.

Molecular target: Alternative Complex III from Flavobacterium johnsoniae (Flavobacterium johnsoniae (endogenous, ATCC 17061 strain UW101))
Assay: cryo-EM structure

## aa3-type cytochrome c oxidase from Flavobacterium johnsoniae (complex)
  stoichiometry N (ACIII:cyt aa3): 1
